Drawing on a protein production outcome set (Wang et al. 2014), this text covers protein production for eleven sequences.

A short description of the data set: label from the status in PepcDB records.
As to “SGGDVNEAYRVETDTDTFFLLVQRGRKESFYAAEIAGLNEFERAGITAPRVIASGEVNGDVYLVMTYLEEGASGSQRQLGQLVAQLHSQQQEEGKFGFSLPYEGGDISFDNHWQDDWRTIFVDKRLDHLKEELLNRGLWDANDIKVYDKVRSQIVEELEKHQSKPSLLHGDLWGGNYMFLKDGRPALFDPAPLYGDREFDIGITTVFGGFTSEFYDAYNKHYPLAKGASYRLEFYRLYLLMV”, the protein production entry was “failed”.
To “SGRLFVRNLSYTSSEEDLEKLFSAYGPLSELHYPIDSLTKKPKGFAFVTFMFPEHAVKAYAEVDGQVFQGRMLHVLPSTIKKEASQ” belongs “not failed”; to “SGRPFVEMYSEIPEIIHMTEGRELVIPCRVTSPNITVTLKKFPLDTLIPDGKRIIWDSRKGFIISNATYKEIGLLTCEATVNGHLYKTNYLTHRQTNTIIDVQISTPRPVKLLRGHTLVLNCTATTPLNTRVQMTWSYPDEKNKRASVRRRIDQSNSHANIFYSVLTIDKMQNKDKGLYTCRVRSGPSFKSVNTSVHIYDKAFITVKHR”, “not failed”.
Consider “SKHAKSFKDDMYLRTEHVVWQKEMLTLARLAAAVDMAAADSKDVANSHIFDAMVNQKIKLQNPEVLKKWLGEQTAFDGKKVLAAYESPESQARADKMQELTETFQIDGTPTVIVGGKYKVEFADWESGMNTIDLLADKVREEQKAAQ”, for which the protein production entry is recorded as “failed”.
Then “SKQPTSAENSVAKKEDKVPVKKQKTRTVFSSTQLCVLNDRFQRQKYLSLQQMQELSNILNLSYKQVKTWFQNQRMKSKRWQKNN”, with “not failed”; and “SLATCIGEKIEDFKVGNLLGKGSFAGVYRAESIHTGLEVAIKMIDKKAMYKAGMVQRVQNEVKIHCQLKHPSILELYNYFEDSNYVYLVLEMCHNGEMNRYLKNRVKPFSENEARHFMHQIITGMLYLHSHGILHRDLTLSNLLLTRNMNIKIADFGLATQLKMPHEKHYTLCGTPNYISPEIATRSAHGLESDVWSLGCMFYTLLIGRPPFDTDTVKNTLNKVVLADYEMPSFLSIEAKDLIHQLLRRNPADRLSLSSVLDHPFMSRNSSTKSKDEG”, with “not failed”; and “SLDDHTRDPTVKAPDGNPSGWRTDGQWEHETLRRAVVHGVRLYNSGEFHESHDCFEDEWYNYGRGNTESKFLHGMVQVAAGAYKHFDFEDDDGMRSLFRTSLQYFRGVPNDYYGVDLLDVRTTVTNALSDPSALHGWQIRLDGEYPTCRPEDIEFAESLEH”, with “not failed”.
Regarding “SLREMLGCCKVYISEARNKTALEAIERALKPFPPAAIVNKFEDAAYGRVGYTVVSSLANGSSSSLKNAVFAMVKTALDTINLELHCGSHPRLGVVDHICFHPLSQTSIEQVSSVANSLAMDIGSILRVPTYLYGAAEKEQCTLDSIRRKLGYFKANREGHEWAGGFDLEMVPLKPDAGPQEVSKAKGVVAVGACGWVSNYNVPVMSNDLKAVRRIARKTSERGGGLASVQTMALVHGEGVIEVACNLLNPSQVGGDEVQGLIERLGREEGLLVGKGYYTDYTPDQIVERYMDLLNNS”, the protein production entry is given as “failed”.
Then “SLSEAGYPRKVMQHAEELHERILSFDSRITVPLDFGTTGNEVDKDGPGQLDLVKAGRGRLSGAALAIFGWPEMWNGPNAPHKPTPGFVDEARHQQEIRYKILTGMVRDFPNQVGIAYSPEDFRRLAMEGKFAIVMSMLNAYPLGDDLSQLDKWAARGVRMFGFSYVGNNDWADSSRPLPFFNDSPDALGGLSPLGKQAVERLNDLGVIIDVSQMSTKALEQVAALSRAPIVASHSAPRALVDIKRNLSDHEMQLIKDSGGVIQVVGFPAYLRPLSKPTLDKLDALRARFDLPPLEGLDYALMPGDPIITIWPEQRFGEYASALYGILEEEPKAGLKELVDAIDYTVKKVGIDHVGISSDFNDGGGVDGWKDVSEIRNVTAELITRGYSDADIAKLWGGNFLRAWGEVQKRAKPTATP”, with “not failed”; and “SLYDPAEKYFNCTDIQRAFFEAGIKLGAIFHQYTGIPVNSENASMAEEFIERSTMIQPFVENVRISINNVKRSSGTYSYSSLNEKMLHAEVLINYNGKKVLGVLNYDEGLDYPVMYAKEVL”, with “not failed”.
To “SMSEHSAIVTWKRKDSEAFTDNQYSRAHTWEFDGGSKILASASPHVVPVPLSVEANVDPEEAFVAALSSCHMLVFLSIAAKQRYLVESYTDNAVGILGKNSKGKTSVTKVVLRPQVVFSGTSKPTLQQLEKMHHLAHENCFIANSVETEVVTEII” belongs “not failed”.
